Experimental data reported in patent US20140087995A1 (published 2014).
One block for each binder: values may come before it. Numbered stars: 1 amine (or outer) side, 2 acyl side, 3 side chain; on linkers, the order of the positions; unused ones are H or OH. Bridge positions count the residues as written; N and C are the ends. Side chains are listed from the residue outwards. Ends that are not written are not given here. * marks the point of attachment. C20 diacid = O=C(O)CCCCCCCCCCCCCCCCCCC(=O)*; γGlu = O=C(O)[C@H](CCC(=O)[*:2])N[*:1]; AEEA = NCCOCCOCC(=O)O

Assays:
[1] = target: T1, human calcitonin receptor (human, UniProt P30988 25-474); test: cell-based or functional assay
T1 sequence (looked up): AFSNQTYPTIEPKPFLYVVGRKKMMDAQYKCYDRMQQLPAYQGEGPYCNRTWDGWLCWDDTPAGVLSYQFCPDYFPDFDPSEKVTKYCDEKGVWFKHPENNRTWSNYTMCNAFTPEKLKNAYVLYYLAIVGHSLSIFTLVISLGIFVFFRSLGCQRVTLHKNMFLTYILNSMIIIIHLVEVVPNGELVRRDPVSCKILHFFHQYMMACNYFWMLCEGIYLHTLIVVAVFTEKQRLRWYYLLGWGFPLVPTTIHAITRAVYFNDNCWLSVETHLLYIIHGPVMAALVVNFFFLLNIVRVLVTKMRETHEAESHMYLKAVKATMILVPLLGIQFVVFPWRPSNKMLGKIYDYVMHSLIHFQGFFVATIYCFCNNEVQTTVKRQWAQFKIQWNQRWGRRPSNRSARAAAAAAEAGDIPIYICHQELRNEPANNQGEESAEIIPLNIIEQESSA

[2] = target: T2, human amylin receptor (amylin 3(a) receptor: human calcitonin receptor co-expressed with RAMP-3) (human, UniProt P30988 25-474; O60896 24-148, limits assumed); test: cell-based or functional assay
T2 sequence (looked up) 1: T1 sequence (looked up)
T2 sequence (looked up) 2: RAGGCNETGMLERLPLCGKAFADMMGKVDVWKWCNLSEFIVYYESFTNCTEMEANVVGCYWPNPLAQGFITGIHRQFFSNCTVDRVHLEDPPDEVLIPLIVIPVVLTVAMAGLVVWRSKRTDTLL

[3] = target: T3, rat amylin receptor (rat calcitonin receptor + rat RAMP 3) (rat, UniProt P32214 25-516; Q9JJ73 23-147); test: SPA competition with 125I-rat amylin, membranes of BHK cells with rat calcitonin receptor + rat RAMP3 (Assay VI)
T3 construct: whole, on cells; also called rAmylin-R; rat amylin 3(a) receptor
T3 sequence (looked up) 1: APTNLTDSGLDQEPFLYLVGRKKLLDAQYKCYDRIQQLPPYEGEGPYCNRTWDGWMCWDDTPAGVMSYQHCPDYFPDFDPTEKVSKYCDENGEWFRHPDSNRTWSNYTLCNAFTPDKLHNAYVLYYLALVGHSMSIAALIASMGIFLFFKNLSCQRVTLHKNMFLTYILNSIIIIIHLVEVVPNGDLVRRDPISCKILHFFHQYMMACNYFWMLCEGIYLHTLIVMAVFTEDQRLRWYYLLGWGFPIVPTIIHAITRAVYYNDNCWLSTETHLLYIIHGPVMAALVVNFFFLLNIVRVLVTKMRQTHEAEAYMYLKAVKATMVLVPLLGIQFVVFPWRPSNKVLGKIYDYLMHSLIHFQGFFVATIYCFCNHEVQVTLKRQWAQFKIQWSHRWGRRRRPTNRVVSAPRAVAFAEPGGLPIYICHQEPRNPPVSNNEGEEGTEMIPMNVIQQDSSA
T3 sequence (looked up) 2: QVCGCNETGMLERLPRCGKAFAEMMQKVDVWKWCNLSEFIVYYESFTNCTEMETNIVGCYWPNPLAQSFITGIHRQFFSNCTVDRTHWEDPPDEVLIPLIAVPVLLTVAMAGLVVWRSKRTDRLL

rat calcitonin receptor [4] = target: T4, rat calcitonin receptor (rat, UniProt P32214 25-516); test: SPA competition with 125I-calcitonin, membranes of BHK cells with rat calcitonin receptor (Assay VIII)
T4 construct: whole, on cells; also called rCTR; rat calcitonin (a) receptor
T4 sequence (looked up): T3 sequence (looked up) 1

rat calcitonin receptor [5] = target: T5, rat calcitonin receptor (rat, UniProt P32214 25-516); test: SPA competition with 125I-calcitonin, membranes of BHK cells with rat CTR (Assay VIII)
T5 construct: whole, on cells; Used as membranes prepared from BHK tk'ts 13 cells transiently transfected with the rat calcitonin receptor (Assay VIII); also called rCTR; rat calcitonin (a) receptor
T5 sequence (looked up): T3 sequence (looked up) 1

[6] = target: T6, rat amylin receptor (rat calcitonin receptor + rat RAMP 3) (rat, UniProt P32214 25-516; Q9JJ73 23-147); test: SPA competition with 125I-rat amylin, membranes of BHK cells with rat CTR + rat RAMP3 (Assay VI)
T6 construct: whole, on cells; Used as membranes prepared from BHK tk'ts 13 cells transiently transfected with rat calcitonin receptor and rat RAMP 3 (Assay VI); also called rAmylin-R; rat amylin 3(a) receptor
T6 sequence (looked up) 1: T3 sequence (looked up) 1
T6 sequence (looked up) 2: T3 sequence (looked up) 2
Protocol: The binding assay was performed using scintillation proximity assay (SPA) beads (RPNQ0001) from PerkinElmer and cell membranes from the Amylin 3(a)/CRE-luc cells (as described in Assay (II)) were used. Membranes were prepared in the following way; the cells were rinsed with PBS and incubated with Versene for approximately 5 min before harvesting. The cells were flushed with PBS and the cell-suspension was centrifuged for 5 min at 1000 rpm. Cells were homogenized (ultrathurrax) in a buffer containing 20 mM Na-HEPES and 10 mM EDTA (pH 7.4) and centrifuged at 20.000 rpm for 15 min. The resulting pellet was resuspended, homogenized and centrifuged (20.000 rpm, 15 min) in a buffer containing 20 mM Na-HEPES and 0.1 mM EDTA (pH 7.4, buffer 2). The resulting pellet was resuspended in buffer 2 and protein concentration was measured (BCA protein Assay, Pierce). The homogenate was kept cold during the whole procedure. The membranes were kept at −80° C. until use. The assay was performed in a 384 well Optiplate (PerkinElmer) in a total volume of 40 ul. Membranes were mixed with SPA beads. Final concentration of membranes 35 ng/μL final and SPA beads was 0.05 mg/well. Test-compounds were dissolved in DMSO and further diluted in assay buffer (50 mM Hepes, pH 7.4, 1 mM CaCl2, 5 mM MgCl₂, 0.1% OA and 0.02% Tween20). […] The final mixture was incubated with shaking at 400 rpm for 120 min at 25° C. prior to centrifugation (1500 rpm, 10 min). Samples were analyzed on TopCounter™ (Packard). The IC₅₀ was calculated using (one site binding competition analysis) GraphPad Prism5 as a measure of receptor affinity.
Cells were grown in DMEM with 10% FBS and 1% Pen/Strep. Approximately 48 hours after transfection, the cells were harvested and membranes were prepared.

- hCTR funct. EC50 [1]: 2380 pM
- Ratio hCT/hAmylin funct. [2]: 28
- hAmylin-R funct. EC50 [2]: 85 pM
B1: N^ε1-[(4S)-4-carboxy-4-[[(4S)-4-carboxy-4-(19-carboxynonadecanoylamino)butanoyl]amino]butanoyl]-[His14,Arg17,Pro21,Pro27]-h-amylin (peptide)
peptide: K([γGlu-γGlu-C20 diacid])CNTATCATQRLAHFLRHSSPNFGAIPSSTNVGSNTY-NH2
modifications: disulfide 2-7; N-terminus assumed
SMILES: CC[C@H](C)[C@H](NC(=O)[C@H](C)NC(=O)CNC(=O)[C@H](Cc1ccccc1)NC(=O)[C@H](CC(N)=O)NC(=O)[C@@H]1CCCN1C(=O)[C@H](CO)NC(=O)[C@H](CO)NC(=O)[C@H](Cc1c[nH]cn1)NC(=O)[C@H](CCCNC(=N)N)NC(=O)[C@H](CC(C)C)NC(=O)[C@H](Cc1ccccc1)NC(=O)[C@H](Cc1c[nH]cn1)NC(=O)[C@H](C)NC(=O)[C@H](CC(C)C)NC(=O)[C@H](CCCNC(=N)N)NC(=O)[C@H](CCC(N)=O)NC(=O)[C@@H](NC(=O)[C@H](C)NC(=O)[C@@H]1CSSC[C@H](NC(=O)[C@@H](N)CCCCNC(=O)CC[C@H](NC(=O)CC[C@H](NC(=O)CCCCCCCCCCCCCCCCCCC(=O)O)C(=O)O)C(=O)O)C(=O)N[C@@H](CC(N)=O)C(=O)N[C@@H]([C@@H](C)O)C(=O)N[C@@H](C)C(=O)N[C@@H]([C@@H](C)O)C(=O)N1)[C@@H](C)O)C(=O)N1CCC[C@H]1C(=O)N[C@@H](CO)C(=O)N[C@@H](CO)C(=O)N[C@H](C(=O)N[C@@H](CC(N)=O)C(=O)N[C@H](C(=O)NCC(=O)N[C@@H](CO)C(=O)N[C@@H](CC(N)=O)C(=O)N[C@H](C(=O)N[C@@H](Cc1ccc(O)cc1)C(N)=O)[C@@H](C)O)C(C)C)[C@@H](C)O
notes: also called compound 92

- IC50 [3]: 335 pM
- IC50 (rat calcitonin receptor [4]): 159000 pM
B2: N^ε1-[(4S)-4-carboxy-4-[[(4S)-4-carboxy-4-(19-carboxynonadecanoylamino)butanoyl]amino]butanoyl]-[Asp14,Arg17,Pro21,Pro27,Arg35]-h-amylin (peptide)
peptide: K([γGlu-γGlu-C20 diacid])CNTATCATQRLADFLRHSSPNFGAIPSSTNVGSRTY-NH2
modifications: disulfide 2-7; N-terminus assumed
SMILES: CC[C@H](C)[C@H](NC(=O)[C@H](C)NC(=O)CNC(=O)[C@H](Cc1ccccc1)NC(=O)[C@H](CC(N)=O)NC(=O)[C@@H]1CCCN1C(=O)[C@H](CO)NC(=O)[C@H](CO)NC(=O)[C@H](Cc1c[nH]cn1)NC(=O)[C@H](CCCNC(=N)N)NC(=O)[C@H](CC(C)C)NC(=O)[C@H](Cc1ccccc1)NC(=O)[C@H](CC(=O)O)NC(=O)[C@H](C)NC(=O)[C@H](CC(C)C)NC(=O)[C@H](CCCNC(=N)N)NC(=O)[C@H](CCC(N)=O)NC(=O)[C@@H](NC(=O)[C@H](C)NC(=O)[C@@H]1CSSC[C@H](NC(=O)[C@@H](N)CCCCNC(=O)CC[C@H](NC(=O)CC[C@H](NC(=O)CCCCCCCCCCCCCCCCCCC(=O)O)C(=O)O)C(=O)O)C(=O)N[C@@H](CC(N)=O)C(=O)N[C@@H]([C@@H](C)O)C(=O)N[C@@H](C)C(=O)N[C@@H]([C@@H](C)O)C(=O)N1)[C@@H](C)O)C(=O)N1CCC[C@H]1C(=O)N[C@@H](CO)C(=O)N[C@@H](CO)C(=O)N[C@H](C(=O)N[C@@H](CC(N)=O)C(=O)N[C@H](C(=O)NCC(=O)N[C@@H](CO)C(=O)N[C@@H](CCCNC(=N)N)C(=O)N[C@H](C(=O)N[C@@H](Cc1ccc(O)cc1)C(N)=O)[C@@H](C)O)C(C)C)[C@@H](C)O
notes: synthetic analogue of human amylin; also called compound 52

- hCTR funct. EC50 [1]: 236 pM
- Ratio hCT/hAmylin funct. [2]: 7.2
- hAmylin-R funct. EC50 [2]: 33 pM
B3: N^ε1-[2-[2-[2-(19-carboxynonadecanoylamino)ethoxy]ethoxy]acetyl]-[His14,Arg17,Pro21,Pro27]-h-amylin (peptide)
peptide: K([AEEA-C20 diacid])CNTATCATQRLAHFLRHSSPNFGAIPSSTNVGSNTY-NH2
modifications: disulfide 2-7; N-terminus assumed
SMILES: CC[C@H](C)[C@H](NC(=O)[C@H](C)NC(=O)CNC(=O)[C@H](Cc1ccccc1)NC(=O)[C@H](CC(N)=O)NC(=O)[C@@H]1CCCN1C(=O)[C@H](CO)NC(=O)[C@H](CO)NC(=O)[C@H](Cc1c[nH]cn1)NC(=O)[C@H](CCCNC(=N)N)NC(=O)[C@H](CC(C)C)NC(=O)[C@H](Cc1ccccc1)NC(=O)[C@H](Cc1c[nH]cn1)NC(=O)[C@H](C)NC(=O)[C@H](CC(C)C)NC(=O)[C@H](CCCNC(=N)N)NC(=O)[C@H](CCC(N)=O)NC(=O)[C@@H](NC(=O)[C@H](C)NC(=O)[C@@H]1CSSC[C@H](NC(=O)[C@@H](N)CCCCNC(=O)COCCOCCNC(=O)CCCCCCCCCCCCCCCCCCC(=O)O)C(=O)N[C@@H](CC(N)=O)C(=O)N[C@@H]([C@@H](C)O)C(=O)N[C@@H](C)C(=O)N[C@@H]([C@@H](C)O)C(=O)N1)[C@@H](C)O)C(=O)N1CCC[C@H]1C(=O)N[C@@H](CO)C(=O)N[C@@H](CO)C(=O)N[C@H](C(=O)N[C@@H](CC(N)=O)C(=O)N[C@H](C(=O)NCC(=O)N[C@@H](CO)C(=O)N[C@@H](CC(N)=O)C(=O)N[C@H](C(=O)N[C@@H](Cc1ccc(O)cc1)C(N)=O)[C@@H](C)O)C(C)C)[C@@H](C)O
notes: also called compound 90

- IC50 (rat calcitonin receptor [5]): 159000 pM
- IC50 [6]: 335 pM
B4: N^ε1-[(4S)-4-carboxy-4-[[(4S)-4-carboxy-4-(19-carboxynonadecanoylamino)butanoyl]amino]butanoyl]-[Asp14,Arg17,Pro21,Pro27,Arg35]-h-amylin (peptide)
peptide: K([γGlu-γGlu-C20 diacid])CNTATCATQRLADFLRHSSPNFGAIPSSTNVGSRTY-NH2
modifications: disulfide 2-7; N-terminus assumed
SMILES: CC[C@H](C)[C@H](NC(=O)[C@H](C)NC(=O)CNC(=O)[C@H](Cc1ccccc1)NC(=O)[C@H](CC(N)=O)NC(=O)[C@@H]1CCCN1C(=O)[C@H](CO)NC(=O)[C@H](CO)NC(=O)[C@H](Cc1c[nH]cn1)NC(=O)[C@H](CCCNC(=N)N)NC(=O)[C@H](CC(C)C)NC(=O)[C@H](Cc1ccccc1)NC(=O)[C@H](CC(=O)O)NC(=O)[C@H](C)NC(=O)[C@H](CC(C)C)NC(=O)[C@H](CCCNC(=N)N)NC(=O)[C@H](CCC(N)=O)NC(=O)[C@@H](NC(=O)[C@H](C)NC(=O)[C@@H]1CSSC[C@H](NC(=O)[C@@H](N)CCCCNC(=O)CC[C@H](NC(=O)CC[C@H](NC(=O)CCCCCCCCCCCCCCCCCCC(=O)O)C(=O)O)C(=O)O)C(=O)N[C@@H](CC(N)=O)C(=O)N[C@@H]([C@@H](C)O)C(=O)N[C@@H](C)C(=O)N[C@@H]([C@@H](C)O)C(=O)N1)[C@@H](C)O)C(=O)N1CCC[C@H]1C(=O)N[C@@H](CO)C(=O)N[C@@H](CO)C(=O)N[C@H](C(=O)N[C@@H](CC(N)=O)C(=O)N[C@H](C(=O)NCC(=O)N[C@@H](CO)C(=O)N[C@@H](CCCNC(=N)N)C(=O)N[C@H](C(=O)N[C@@H](Cc1ccc(O)cc1)C(N)=O)[C@@H](C)O)C(C)C)[C@@H](C)O
notes: Analogue of human amylin; also called compound 52
